Assay results reported in article PMC3319311 (Nature, 2012).
Residue numbers refer to the chain shown, from its start. Numbers in names are those of the source.

Key:
hOTUB1 F193W = hOTUB1 F193W (human, UniProt Q96FW1 1-271, F193W); experiment: fluorescence polarisation
hOTUB1 H217W = hOTUB1 H217W (human, UniProt Q96FW1 1-271, H217W); experiment: fluorescence polarisation
hOTUB1 F193R = hOTUB1 F193R (human, UniProt Q96FW1 1-271, F193R); experiment: fluorescence polarisation
[1] = biological target: T1, human OTUB1 (OTU domain-containing ubiquitin aldehyde-binding protein 1) (human, UniProt Q96FW1 1-271); experiment: fluorescence polarisation
[2] = biological target: T2, Caenorhabditis elegans OTUB1 (Caenorhabditis elegans, UniProt Q9XVR6); experiment: fluorescence polarisation
T2 sequence: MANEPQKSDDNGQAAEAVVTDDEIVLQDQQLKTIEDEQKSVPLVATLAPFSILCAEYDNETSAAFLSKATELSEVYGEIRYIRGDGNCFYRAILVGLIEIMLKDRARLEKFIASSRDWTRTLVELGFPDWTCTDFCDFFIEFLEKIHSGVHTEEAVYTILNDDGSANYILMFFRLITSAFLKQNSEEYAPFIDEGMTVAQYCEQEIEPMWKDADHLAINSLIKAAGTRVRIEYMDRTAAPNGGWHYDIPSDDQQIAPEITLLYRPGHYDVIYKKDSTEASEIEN

hOTUB1Δ15 = hOTUB1Δ15 (human, UniProt Q96FW1 16-271); experiment: pull-down
His6-tagged human OTUB1 = His6-tagged human OTUB1 (human, UniProt Q96FW1 1-271); experiment: pull-down
[3] = biological target: T1, human OTUB1 (OTU domain-containing …); experiment: SEC

T1 sequence (Q96FW1 whole entry, the tested form may be a part): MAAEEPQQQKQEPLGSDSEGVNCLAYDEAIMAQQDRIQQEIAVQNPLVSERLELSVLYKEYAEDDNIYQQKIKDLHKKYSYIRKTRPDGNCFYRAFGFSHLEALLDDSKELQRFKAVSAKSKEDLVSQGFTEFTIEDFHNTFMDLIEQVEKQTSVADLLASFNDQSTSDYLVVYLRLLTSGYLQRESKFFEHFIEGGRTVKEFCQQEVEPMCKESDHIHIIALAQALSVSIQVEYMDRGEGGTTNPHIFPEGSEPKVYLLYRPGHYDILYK
hOTUB1 F193W, sequence (Q96FW1 whole entry F193W): as the sequence (Q96FW1 whole entry, the tested form may be a part) above, with F193W counted along it
His6-tagged human OTUB1, sequence (Q96FW1 whole entry, the tested form may be a part): as the sequence (Q96FW1 whole entry, the tested form may be a part) above
hOTUB1Δ15, sequence (Q96FW1 16-271, stated change not applied): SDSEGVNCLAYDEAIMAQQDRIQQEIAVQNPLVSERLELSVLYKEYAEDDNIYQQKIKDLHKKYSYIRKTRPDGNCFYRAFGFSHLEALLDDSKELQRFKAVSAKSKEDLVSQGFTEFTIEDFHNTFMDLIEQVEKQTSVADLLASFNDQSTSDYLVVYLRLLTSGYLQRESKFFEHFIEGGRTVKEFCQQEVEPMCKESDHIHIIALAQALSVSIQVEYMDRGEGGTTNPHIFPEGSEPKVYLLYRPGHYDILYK
hOTUB1 H217W, sequence (Q96FW1 whole entry H217W): as the sequence (Q96FW1 whole entry, the tested form may be a part) above, with H217W counted along it
hOTUB1 F193R, sequence (Q96FW1 whole entry F193R, the tested form may be a part): as the sequence (Q96FW1 whole entry, the tested form may be a part) above, with F193R counted along it

B1: fluorescein-labeled human UBC13 (enzyme)
chain: MAGLPRRIIKETQRLLAEPVPGIKAEPDESNARYFHVVIAGPQDSPFEGGTFKLELFLPEEYPMAAPKVRFMTKIYHPNVDKLGRICLDILKDKWSPALQIRTVLLSIQALLSAPNPDDPLANDVAEQWKTNEAQAIETARAWTRLYAMNNI
modifications: labeled with fluorescein-5-maleimide
- binding result (hOTUB1 F193W): binds
- binding result (hOTUB1 H217W): binds
- binding result (hOTUB1 F193R): binds
- Kd [1]: 7.04 µM
- Kd [2]: 58.5 µM

B2: UBC13^C87S~Ub oxyester (complex)
chain 1: B1 chain with C87S
chain 2: […]
- binding result (hOTUB1Δ15): binds
- binding result (His6-tagged human OTUB1): binds

B3: human UBC13 (UBE2N) (enzyme)
chain: B1 chain
- binding result [3]: binds
